The supplement of paper PMC10567573

B1: SMG5 (parent)
chain: QEKLQVLMAEGLLPAVKVFLDWLR
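Note: lentivirally expressed fusions sorted by FACS into six bins by GFP to DsRed ratio, PSI derived from sequencing read proportions per bin multiplied by bin number.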

Variants of: B1
Assay: protein stability index of a GFP-peptide fusion (GPS, HEK-293T) (PSI 1-6); higher = more stable
Settings: c terminus: a fixed tail appended
In the case of MEKLQVLMAEGLLPAVKVFLDWLR, the protein stability index is reported as 2.37.
In the case of NEKLQVLMAEGLLPAVKVFLDWLR, the protein stability index is reported as 1.62.
With PEKLQVLMAEGLLPAVKVFLDWLR the protein stability index was 2.09.
With REKLQVLMAEGLLPAVKVFLDWLR the protein stability index was 1.57.
For SEKLQVLMAEGLLPAVKVFLDWLR, the protein stability index was 2.88.
Work on TEKLQVLMAEGLLPAVKVFLDWLR yielded a protein stability index of 1.96.
For VEKLQVLMAEGLLPAVKVFLDWLR, the protein stability index was 2.18.
In the case of WEKLQVLMAEGLLPAVKVFLDWLR, the protein stability index is reported as 1.95.
Variant YEKLQVLMAEGLLPAVKVFLDWLR has a protein stability index of 2.81.
With QAKLQVLMAEGLLPAVKVFLDWLR the protein stability index was 2.31.
QCKLQVLMAEGLLPAVKVFLDWLR gave a protein stability index of 2.47.
QDKLQVLMAEGLLPAVKVFLDWLR gave a protein stability index of 2.26.
QFKLQVLMAEGLLPAVKVFLDWLR gave a protein stability index of 2.2.
Variant QGKLQVLMAEGLLPAVKVFLDWLR has a protein stability index of 1.6.
For QHKLQVLMAEGLLPAVKVFLDWLR, the protein stability index was 3.82.
In the case of QIKLQVLMAEGLLPAVKVFLDWLR, the protein stability index is reported as 2.23.
With QKKLQVLMAEGLLPAVKVFLDWLR the protein stability index was 2.38.
Variant QLKLQVLMAEGLLPAVKVFLDWLR has a protein stability index of 1.44.
With QMKLQVLMAEGLLPAVKVFLDWLR the protein stability index was 2.83.
QNKLQVLMAEGLLPAVKVFLDWLR showed a protein stability index of 2.86.
QPKLQVLMAEGLLPAVKVFLDWLR showed a protein stability index of 2.96.
QQKLQVLMAEGLLPAVKVFLDWLR showed a protein stability index of 2.92.
QRKLQVLMAEGLLPAVKVFLDWLR gave a protein stability index of 2.37.
QSKLQVLMAEGLLPAVKVFLDWLR gave a protein stability index of 3.11.
QTKLQVLMAEGLLPAVKVFLDWLR showed a protein stability index of 2.68.
For QVKLQVLMAEGLLPAVKVFLDWLR, the protein stability index was 2.56.
QWKLQVLMAEGLLPAVKVFLDWLR gave a protein stability index of 1.56.
Work on QYKLQVLMAEGLLPAVKVFLDWLR yielded a protein stability index of 2.15.
QEALQVLMAEGLLPAVKVFLDWLR gave a protein stability index of 4.03.
QECLQVLMAEGLLPAVKVFLDWLR showed a protein stability index of 2.03.
Variant QEDLQVLMAEGLLPAVKVFLDWLR has a protein stability index of 2.02.
With QEELQVLMAEGLLPAVKVFLDWLR the protein stability index was 2.25.
QEFLQVLMAEGLLPAVKVFLDWLR gave a protein stability index of 1.53.
QEGLQVLMAEGLLPAVKVFLDWLR gave a protein stability index of 1.91.
In the case of QEHLQVLMAEGLLPAVKVFLDWLR, the protein stability index is reported as 1.96.
For QEILQVLMAEGLLPAVKVFLDWLR, the protein stability index was 1.45.
With QELLQVLMAEGLLPAVKVFLDWLR the protein stability index was 1.78.
For QEMLQVLMAEGLLPAVKVFLDWLR, the protein stability index was 1.5.
With QENLQVLMAEGLLPAVKVFLDWLR the protein stability index was 1.91.
For QEQLQVLMAEGLLPAVKVFLDWLR, the protein stability index was 2.66.
QERLQVLMAEGLLPAVKVFLDWLR gave a protein stability index of 3.73.
QESLQVLMAEGLLPAVKVFLDWLR showed a protein stability index of 1.79.
QETLQVLMAEGLLPAVKVFLDWLR showed a protein stability index of 1.48.
QEVLQVLMAEGLLPAVKVFLDWLR gave a protein stability index of 2.02.
Work on QEWLQVLMAEGLLPAVKVFLDWLR yielded a protein stability index of 1.48.
With QEYLQVLMAEGLLPAVKVFLDWLR the protein stability index was 2.15.
Work on QEKCQVLMAEGLLPAVKVFLDWLR yielded a protein stability index of 3.13.
In the case of QEKDQVLMAEGLLPAVKVFLDWLR, the protein stability index is reported as 3.26.
QEKEQVLMAEGLLPAVKVFLDWLR showed a protein stability index of 1.12.
Variant QEKFQVLMAEGLLPAVKVFLDWLR has a protein stability index of 2.71.
QEKGQVLMAEGLLPAVKVFLDWLR gave a protein stability index of 3.1.
Variant QEKHQVLMAEGLLPAVKVFLDWLR has a protein stability index of 2.2.
Work on QEKIQVLMAEGLLPAVKVFLDWLR yielded a protein stability index of 1.91.
With QEKMQVLMAEGLLPAVKVFLDWLR the protein stability index was 2.32.
QEKRQVLMAEGLLPAVKVFLDWLR gave a protein stability index of 2.69.
QEKSQVLMAEGLLPAVKVFLDWLR showed a protein stability index of 2.75.
Variant QEKTQVLMAEGLLPAVKVFLDWLR has a protein stability index of 3.18.
In the case of QEKVQVLMAEGLLPAVKVFLDWLR, the protein stability index is reported as 2.58.
QEKWQVLMAEGLLPAVKVFLDWLR showed a protein stability index of 2.18.
QEKYQVLMAEGLLPAVKVFLDWLR gave a protein stability index of 4.02.
QEKLAVLMAEGLLPAVKVFLDWLR showed a protein stability index of 2.
With QEKLCVLMAEGLLPAVKVFLDWLR the protein stability index was 2.11.
Variant QEKLDVLMAEGLLPAVKVFLDWLR has a protein stability index of 3.13.
QEKLEVLMAEGLLPAVKVFLDWLR showed a protein stability index of 4.03.
QEKLFVLMAEGLLPAVKVFLDWLR showed a protein stability index of 1.46.
Variant QEKLGVLMAEGLLPAVKVFLDWLR has a protein stability index of 1.88.
With QEKLHVLMAEGLLPAVKVFLDWLR the protein stability index was 1.58.
QEKLIVLMAEGLLPAVKVFLDWLR gave a protein stability index of 2.86.
Variant QEKLKVLMAEGLLPAVKVFLDWLR has a protein stability index of 2.45.
In the case of QEKLLVLMAEGLLPAVKVFLDWLR, the protein stability index is reported as 2.5.
QEKLMVLMAEGLLPAVKVFLDWLR showed a protein stability index of 2.19.
For QEKLNVLMAEGLLPAVKVFLDWLR, the protein stability index was 1.67.
In the case of QEKLPVLMAEGLLPAVKVFLDWLR, the protein stability index is reported as 2.22.
With QEKLSVLMAEGLLPAVKVFLDWLR the protein stability index was 2.8.
In the case of QEKLTVLMAEGLLPAVKVFLDWLR, the protein stability index is reported as 1.47.
QEKLVVLMAEGLLPAVKVFLDWLR showed a protein stability index of 2.31.
QEKLWVLMAEGLLPAVKVFLDWLR showed a protein stability index of 1.45.
Work on QEKLYVLMAEGLLPAVKVFLDWLR yielded a protein stability index of 1.8.
For QEKLQALMAEGLLPAVKVFLDWLR, the protein stability index was 1.82.
Work on QEKLQCLMAEGLLPAVKVFLDWLR yielded a protein stability index of 2.14.
With QEKLQDLMAEGLLPAVKVFLDWLR the protein stability index was 1.96.
QEKLQELMAEGLLPAVKVFLDWLR gave a protein stability index of 2.18.
QEKLQGLMAEGLLPAVKVFLDWLR gave a protein stability index of 2.42.
QEKLQHLMAEGLLPAVKVFLDWLR gave a protein stability index of 1.55.
In the case of QEKLQILMAEGLLPAVKVFLDWLR, the protein stability index is reported as 1.5.
With QEKLQKLMAEGLLPAVKVFLDWLR the protein stability index was 2.16.
QEKLQMLMAEGLLPAVKVFLDWLR showed a protein stability index of 1.48.
QEKLQNLMAEGLLPAVKVFLDWLR gave a protein stability index of 3.16.
Variant QEKLQPLMAEGLLPAVKVFLDWLR has a protein stability index of 2.
QEKLQQLMAEGLLPAVKVFLDWLR showed a protein stability index of 2.02.
QEKLQRLMAEGLLPAVKVFLDWLR gave a protein stability index of 1.99.
Variant QEKLQWLMAEGLLPAVKVFLDWLR has a protein stability index of 2.51.
In the case of QEKLQYLMAEGLLPAVKVFLDWLR, the protein stability index is reported as 3.07.
For QEKLQVAMAEGLLPAVKVFLDWLR, the protein stability index was 2.4.
